Experimental data as given in patent US20220112296A1 (Chugai, published 2022).
Where a chain is given by its changes, count along the chain named. Where “and” joins values, the source holds several entries; their conditions need not be identical. Identical values can stand only once.

T1: cyno CD137-Fc (cynomolgus monkey; human, biotin-labeled)
T1 construct: whole entry named; also called biotin-labeled cynomolgus monkey CD137 fused to human IgG1 Fc fragment; not shown: human IgG1 Fc fragment
T1 chain: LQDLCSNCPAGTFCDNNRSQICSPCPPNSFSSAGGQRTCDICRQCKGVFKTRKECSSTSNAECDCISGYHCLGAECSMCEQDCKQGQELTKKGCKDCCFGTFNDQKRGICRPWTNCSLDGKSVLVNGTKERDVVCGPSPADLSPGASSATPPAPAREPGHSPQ

T2: Human CD3eg linker (human)
T2 construct: CD3 epsilon and gamma subunits joined by a 29-mer linker, C-terminal Flag-tag (in the entry); also called recombinant human CD3
T2 chain: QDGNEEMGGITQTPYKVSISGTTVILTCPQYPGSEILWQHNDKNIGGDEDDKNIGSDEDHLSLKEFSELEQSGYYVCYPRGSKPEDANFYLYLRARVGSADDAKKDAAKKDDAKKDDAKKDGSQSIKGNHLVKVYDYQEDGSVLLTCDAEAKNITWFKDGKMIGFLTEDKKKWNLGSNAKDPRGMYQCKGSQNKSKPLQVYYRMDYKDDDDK

B1: DADU01_3#001 (antibody, V domains shown)
VH: QVQLVESGGGLVQPGRSLRLSCAASGFTFSIAWMHWVRQAPGKGLEWVAQIKDRVNAYEAYYAPSVKGRFTISRDDSKNSIYLQMNSLKTEDTAVYYCRYVHYASYYDLLGYGGVDAWGQGTTVTVSS
VL: DIVMTQSPLSLPVTPGEPASISCRSSQSLVHSNRNTYLHWYQQKPGQAPRLLIYKVSNRFSGVPDRFSGSGSGTDFTLKISRVEAEDVGVYYCGQGTQVPYTFGQGTKLEIK
notes: also called dBBDu_126; dBBDu126
B2: GPC3 ERY22-dBBDu_167/L091 (bispecific antibody, human IgG1, kappa, L234A L235A, N297A)
heavy 1: DIVMTQSPLSLPVTPGEPASISCRSSQSLVHSNRNTYLHWYQQKPGQAPRLLIYKVSNRFSGVPDRFSGSGSGTDFTLKISRVEAEDVGVYYCSQNTHVPPTFGQGTKLEIKSSASTKGPSVFPLAPSSKSTSGGTAALGCLVKDYFPEPVTVSWNSGALTSGVHTFPAVLQSSGLYSLSSVVTVPSSSLGTQTYICNVNHKPSNTKVDKKVEPKSCDKTHTCPPCPAPEAAGGPSVFLFPPKPKDTLMISRTPEVTCVVVDVSHEDPEVKFNWYVDGVEVHNAKTKPREEQYASTYRVVSVLTVLHQDWLNGKEYKCKVSNKALPAPIEKTISKAKGQPREPQVCTLPPSRDELTKNQVSLWCLVKGFYPSDIAVEWESNGQPENNYKTTPPVLDSDGSFFLYSKLTVDKSRWQQGNVFSCSVMHEALHNHYTQKSLSLSPHHHHHHHH
light 1: QVQLVQSGAEVKKPGASVKVSCKASGYTFTDYEMHWIRQPPGQGLEWIGAIDPKTGDTAYSQKFKGRVTLTADKSTSTAYMELSSLTSEDTAVYYCTRFYSYTYWGQGTLVTVSSASVAAPSVFIFPPSDEQLKSGTASVVCLLNNFYPREAKVQWKVDNALQSGNSQESVTEQDSKDSTYSLSSTLTLSKADYEKHKVYACEVTHQGLSSPVTKSFNRGEC
heavy 2: QVQLVESGGGLVQPGRSLRLSCAASGFTFSNAWMHWVRQAPGKGLEWVAQIKDKGNLYAAYYAPSVKGRFTISRDDSKNSIYLQMNSLKTEDTAVYYCHYVHYASAGGGLPGFGVDAWGQGTTVTVSSASTKGPSVFPLAPSSKSTSGGTAALGCLVKDYFPEPVTVSWNSGALTSGVHTFPAVLQSSGLYSLSSVVTVPSSSLGTQTYICNVNHKPSNTKVDKKVEPKSCDKTHTCPPCPAPEAAGGPSVFLFPPKPKDTLMISRTPEVTCVVVDVSHEDPEVKFNWYVDGVEVHNAKTKPREEQYASTYRVVSVLTVLHQDWLNGKEYKCKVSNKALPAPIEKTISKAKGQPREPQVYTLPPSRCELTKNQVSLSCAVKGFYPSDIAVEWESNGQPENNYKTTPPVLDSDGSFFLVSKLTVDKSRWQQGNVFSCSVMHEALHNHYTQKSLSLSPDYKDDDDK
light 2: DIVMTQSPLSLPVTPGEPASISCSASESLLHNNRHTYLHWYQQKPGQAPRLLIYRVSNRFNGVPDRFSGSGSGTDFTLKISRVEAEDVGVYYCGQGTQVPFTFGQGTKLEIKRTVAAPSVFIFPPSDEQLKSGTASVVCLLNNFYPREAKVQWKVDNALQSGNSQESVTEQDSKDSTYSLSSTLTLSKADYEKHKVYACEVTHQGLSSPVTKSFNRGEC
B3: GPC3 ERY22-dBBDu_186/L096 (bispecific antibody, human IgG1, kappa, L234A L235A, N297A)
heavy 1: B2 heavy 1
light 1: B2 light 1
heavy 2: B2 heavy 2 with K54R, G55S, L57Q, A60T, S105Q, G107S, G108T, G109V, G112A
light 2: DIVMTQSPLSLPVTPGEPASISCRTSQELVHINRYIFLHWYQQKPGQAPRLLIYKVYNRFQGVPDRFSGSGSGTDFTLKISRVEAEDVGVYYCAQGTSVPYTFGQGTKLEIKRTVAAPSVFIFPPSDEQLKSGTASVVCLLNNFYPREAKVQWKVDNALQSGNSQESVTEQDSKDSTYSLSSTLTLSKADYEKHKVYACEVTHQGLSSPVTKSFNRGEC
B4: GPC3 ERY22-dBBDu_186/L098 (bispecific antibody, human IgG1, kappa, L234A L235A, N297A)
heavy 1: B2 heavy 1
light 1: B2 light 1
heavy 2: B2 heavy 2 with K54R, G55S, L57Q, A60T, S105Q, G107S, G108T, G109V, G112A
light 2: B3 light 2 with R24A, T25A, Q27E, Y57S, Q61I, T97S, S98Q, Y101F
B5: GPC3 ERY22-dBBDu_186/L106 (bispecific antibody, human IgG1, kappa, L234A L235A, N297A)
heavy 1: B2 heavy 1
light 1: B2 light 1
heavy 2: B2 heavy 2 with K54R, G55S, L57Q, A60T, S105Q, G107S, G108T, G109V, G112A
light 2: B3 light 2 with R24S, Q27E, V30L, Y35F, Y57A, Q61M, T97S, S98Q, Y101F
B6: GPC3 ERY22-dBBDu_189/L116 (bispecific antibody, human IgG1, kappa, L234A L235A, N297A)
heavy 1: B2 heavy 1
light 1: B2 light 1
heavy 2: B2 heavy 2 with V48I, K54R, G55S, L57Q, A60T, S105Q, G107S, G108S, G109L, G112S
light 2: B3 light 2 with R24S, T25S, I32A, Y35Q, F37Y, Y57A, Q61P, S98Q, Y101F
B7: GPC3 ERY22-dBBDu_189/L119 (bispecific antibody, human IgG1, kappa, L234A L235A, N297A)
heavy 1: B2 heavy 1
light 1: B2 light 1
heavy 2: B2 heavy 2 with V48I, K54R, G55S, L57Q, A60T, S105Q, G107S, G108S, G109L, G112S
light 2: B3 light 2 with R24T, T25A, Y35F, Y57S, Q61I, T97S, S98Q, Y101F
B8: H0868L0581 (antibody, V domains shown)
VH: QVQLVESGGGLVQPGRSLRLSCAASGFKFSNVWMHWVRQAPGKGLEWVAQIKDKYNAYAAYYAPSVKGRFTISRDDSKNSIYLQMNSLKTEDTAVYYCHYVHYASASTLLPAFGVDAWGQGTTVTVSS
VL: B1 VL with R24Q, S25P, S28E, L29V, S32M, S61P, G94A, Q98S, V99H, Y101F
B9: H0883 (antibody, V domains shown)
VH: B8 VH with K28T, V32A, Y55G, H99R
VL: B1 VL with R24Q, S25A, S28E, S32M, S61P, G94A, Q98S, Y101F
notes: also called H0883 (CD3); H883
B10: H0888L0581 (antibody, V domains shown)
VH: B8 VH with Y55W, V101I, V115I
VL: B1 VL with R24Q, S25P, S28E, L29V, S32M, S61P, G94A, Q98S, V99H, Y101F
notes: Dual-Ig, captured by anti-human Fc; also called dBBDu183H0888/dBBDu072L0581
B11: H1571L0581 (antibody, V domains shown)
VH: B8 VH with M34F, A60T
VL: B1 VL with R24Q, S25P, S28E, L29V, S32M, S61P, G94A, Q98S, V99H, Y101F
B12: H1572L0581 (antibody, V domains shown)
VH: B8 VH with M34F, F113E
VL: B1 VL with R24Q, S25P, S28E, L29V, S32M, S61P, G94A, Q98S, V99H, Y101F
B13: H1573L0581 (antibody, V domains shown)
VH: B8 VH with M34F, K54Y
VL: B1 VL with R24Q, S25P, S28E, L29V, S32M, S61P, G94A, Q98S, V99H, Y101F
B14: H1579L0581 (antibody, V domains shown)
VH: B8 VH with N31H, M34F
VL: B1 VL with R24Q, S25P, S28E, L29V, S32M, S61P, G94A, Q98S, V99H, Y101F
B15: H1595L0581 (antibody, V domains shown)
VH: B8 VH with V32T, V101I
VL: B1 VL with R24Q, S25P, S28E, L29V, S32M, S61P, G94A, Q98S, V99H, Y101F
B16: H1643L0581 (antibody, V domains shown)
VH: B8 VH with M34F, K54Y, F113E
VL: B1 VL with R24Q, S25P, S28E, L29V, S32M, S61P, G94A, Q98S, V99H, Y101F
notes: also called H1643L581; Dual
B17: H1673L0943 (antibody, V domains shown)
VH: B8 VH with K28V, M34F, Y55W, A60D, G68E, V101I, F113E, V115I
VL: DIVMTQSPLSLPVTPGEPASISCQPSEEVVHMNRNTYLHWYQQKPGQAPRLLIYKVSNLFPGVPDRFSGSGSGTDFTLKISRVEAEDVGVYYCAQGTHHPFTFGQGTKLEIK
B18: H1647L0581 (antibody, V domains shown)
VH: B8 VH with V32T, M34F, K54Y, A57D, F113E
VL: B17 VL with E27Q, L59R, H98S
notes: also called H1647L0581 (CD137); Anti-CD137 variant
B19: CE115HA340 (antibody, human IgG1, L234A L235A, N297A, V domains shown)
VH: QVQLVESGGGLVQPGRSLRLSCAASGFTFSNAWMHWVRQAPGKGLEWVAQIKDKSNNYATYYAESVKGRFTISRDDSKNSIYLQMNSLKTEDTAVYYCRYVHYAAYYGVDAWGQGTTVTVSS
VL: B1 VL

Target: T1, cyno CD137-Fc
Assay: bead ELISA

| Binder | binding result |
| --- | --- |
| B1 | no binding |

Target: human CD137 (4-1BB) on cells (human, UniProt Q07011 24-255)
Assay: cell-based or functional assay

Chain of human CD137 (4-1BB) on cells (Q07011 24-255): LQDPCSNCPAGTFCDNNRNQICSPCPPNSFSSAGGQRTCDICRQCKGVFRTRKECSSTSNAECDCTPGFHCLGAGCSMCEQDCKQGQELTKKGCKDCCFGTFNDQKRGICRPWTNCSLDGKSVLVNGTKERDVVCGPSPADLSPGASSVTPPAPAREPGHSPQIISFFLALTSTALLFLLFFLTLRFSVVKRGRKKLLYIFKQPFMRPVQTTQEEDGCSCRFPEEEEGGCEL

| Binder | Agonistic activity compared to B, 6 ug/mL [%] | Agonistic activity compared to B, 30 ug/mL [%] | Agonistic activity compared to Ctrl, 6 ug/mL [%] | Agonistic activity compared to Ctrl, 30 ug/mL [%] | hIL-6 (pg/mL), 6 ug/mL antibody [pg/mL] | hIL-6 (pg/mL), 30 ug/mL antibody [pg/mL] |
| --- | --- | --- | --- | --- | --- | --- |
| B2 | -2.21 | 1.1 | -7.68 | 4.19 | 935 | 944 |
| B3 | 19 | 24.2 | 66.1 | 91.7 | 1680 | 1740 |
| B4 | 13.9 | 24.6 | 48.3 | 93.5 | 1500 | 1750 |
| B5 | 13.2 | 19.4 | 45.8 | 73.6 | 1480 | 1570 |
| B6 | 8.28 | 19.2 | 28.7 | 72.9 | 1300 | 1570 |
| B7 | 6.92 | 20.4 | 24 | 77.3 | 1260 | 1610 |

Target: T2, Human CD3eg linker
Assay: SPR Biacore T200, 25 C, Ab captured
Description: (§1) Anti-human Fc (GE Healthcare) was immobilized onto all flow cells of a CM4 sensor chip using amine coupling kit (GE Healthcare). […] All antibodies and analytes were prepared in ACES pH 7.4 containing 20 mM ACES, 150 mM NaCl, 0.05% Tween 20, 0.005% NaN3. Sensor surface was regenerated each cycle with 3M MgCl2.

| Binder | Kd [nM] |
| --- | --- |
| B8 | 173 |
| B9 | 110 |
| B10 | 20.2 |
| B11 | 123 |
| B12 | 286 |
| B13 | 156 |
| B14 | 273 |
| B15 | 57 |
| B16 | 288 |
| B17 | 24.6 |

Target: T3, Human CD137 ECD (human)
T3 construct: C-terminal His-tag and biotin acceptor peptide are in the entry; also called human CD137 extracellular domain; recombinant human CD137
Assay: SPR Biacore T200, 37 C, Ab captured
Description: as §1

T3 sequence (chain, as listed by the source limits assumed): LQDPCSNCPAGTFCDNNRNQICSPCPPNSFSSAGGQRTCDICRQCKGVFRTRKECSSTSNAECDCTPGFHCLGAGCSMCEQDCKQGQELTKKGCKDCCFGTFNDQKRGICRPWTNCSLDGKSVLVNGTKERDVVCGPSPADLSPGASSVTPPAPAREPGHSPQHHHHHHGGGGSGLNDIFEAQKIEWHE

| Binder | Kd [nM] |
| --- | --- |
| B8 | 108 |
| B10 | 208 |
| B11 | 85 |
| B12 | 52.1 |
| B13 | 70.6 |
| B14 | 275 |
| B15 | 195 |
| B16 | 47.9 |
| B18 | 60.5 |
| B17 | 56.5 |

Target: T4, biotinylated CD3 epsilon epitope peptide
T4 construct: immobilised on CM5 chip via streptavidin
Assay: SPR Biacore, method of Ref. Ex. 12.6

| Binder | Kd |
| --- | --- |
| B19 | 20 nM and 27 nM |
